Source: US20120213844A1
Positions of bridges follow the written chain, without caps; N, C: chain ends. No end group written: not given here. PEG = not defined here

Target: human EGFR on tumor cells (human) (UniProt P00533)
Experiment: flow cytometry on A431 cells preincubated with 2 ug EGF, 2 uM bio-P190:avidin complex, 4 C

## DPCTWEVWGRECLQ-{PEG-biotin} (disulfide 3-12 (inferred); reading uncertain) [Biotinylated-PEGylated P190]
  staining, fold over background: 20 fold
